In doi:10.1101/2025.05.02.651972 one finds Kd data, which are given here for one substance.

The assay deals with recombinant extracellular domain of EGFR (human) (UniProt P00533). Kind of assay: MST.

Take “recombinant epiregulin (from UniProt O14944) (ligand)”: the dissociation constant Kd was 500 nM.
